Assay results reported in the supplement of paper PMC10567573.

B1: DCAF4 (parent)
chain: TTKCVRQYEGHVNEYAYLPLHVHE

Variants of: B1
Assay: protein stability index of a GFP-peptide fusion (GPS, HEK-293T) (PSI 1-6); higher = more stable
Conditions: c terminus: a fixed tail appended
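Note: lentivirally expressed fusions sorted by FACS into six bins by GFP to DsRed ratio, PSI derived from sequencing read proportions per bin multiplied by bin number.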

Protein stability index, by site and new letter:
E9: C 1.63; Y 1.97; M 2.32; G 2.55; R 2.18; I 1.87; F 1.76; D 3.04; N 2.52; A 2.29; V 2.42; L 2.12; K 2.13; H 1.97; W 1.61; Q 2.52; S 2.04; P 2.51; T 1.91
K3: W 1.82; M 2.07; C 2.62; H 2.71; N 2.98; A 3.11; F 1.55; L 2.6; S 2.71; T 2.71; V 2.02; Y 1.6; Q 3.25; G 2.89; D 3.56; R 2.12; E 3.58; P 3.58; I 1.73
G10: D 3.07; E 3.3; C 2.61; H 2.31; A 2.37; F 1.66
Q7: L 2.28; C 2.15; M 2.19; I 2.17; E 2.96; F 1.87; N 2.54; A 2.52; K 2.77; H 2.64; G 2.13; V 2.24; R 2.28; S 2.75; P 2.06; D 2.8; T 2.97; Y 1.79; W 1.88
Y8: M 2.89; E 4.03; L 2.79; I 2.82; P 2.42; R 2.94; N 3.31; A 2.65; K 3.52; T 3.15; Q 3.39; H 2.64; W 2.42; C 2.66; S 3.19; F 2.69; G 3.12; V 3.17; D 3.75
T1: R 2.22; A 2.67; P 2.48; Y 1.69; E 3.14; G 2.99; L 2.99; W 1.92; D 3.45; M 2.19; I 2; H 2.65; Q 2.74; K 2.84; V 2.22; N 2.4; F 1.74; S 3.81; C 1.9
T2: V 2.46; D 3.24; E 3.23; I 2.19; H 2.32; Q 2.41; P 3.05; L 2.15; A 2.47; S 2.74; R 2.41; N 2.99; G 2.69; W 2.43; F 2.47; C 2.43; Y 2.01; M 2.52; K 2.64
R6: Q 3.31; D 2.87; E 3.12; I 2.11; Y 2.4; N 2.95; P 2.26; A 3.02; M 2.38; W 1.73; H 2.52; L 2.18; K 2.63; V 2.1; S 2.01; F 1.8; C 2.53; T 2.49; G 2.58
C4: Q 2.94; N 3.48; G 2.67; S 3.25; P 3.1; M 3.45; L 2.86; A 3.14; E 3.59; D 3.76; V 3.08; W 2.29; H 3.19; Y 2.48; I 3.13; F 2.25; T 3.42; R 2.69; K 2.83
V5: R 1.76; F 2.24; L 2.84; D 3.34; C 2; A 2.67; K 1.99; Y 1.82; E 3.29
